Reference: patent US20230218875A1, “PARTICLE-ATTACHED MICRONEEDLE AND METHOD OF MANUFACTURING THE SAME” (QuadMedicine, Inc., priority 2022, published 2023)

Assay: Adhesion force of ovalbumin particles to PDMS 40 by centrifugation
Type: physicochemical
Procedure: Ovalbumin particles with an average diameter of 10 μm were attached to a plate with a diameter of 0.5 cm containing a PDMS 40 adhesive layer. Next, the plate was placed in a centrifuge tube. After centrifuging the tube at 27,000 g (Centrifuge, 1730R, LABOGENE, South Korea) for 10 min, the plate was weighed using a high-precision balance (Satorius SE2-F, Gottingen, Germany), and the amount of ovalbumin particles separated from the surface of PDMS 40 during centrifugation was calculated.

B1: ovalbumin particles: Ovalbumin particles with an average diameter of 10 μm attached to a plate containing a PDMS 40 adhesive layer (protein, UniProt P01012 2-386, looked up)
Ovalbumin: GSIGAASMEFCFDVFKELKVHHANENIFYCPIAIMSALAMVYLGAKDSTRTQINKVVRFDKLPGFGDSIEAQCGTSVNVHSSLRDILNQITKPNDVYSFSLASRLYAEERYPILPEYLQCVKELYRGGLEPINFQTAADQARELINSWVESQTNGIIRNVLQPSSVDSQTAMVLVNAIVFKGLWEKAFKDEDTQAMPFRVTEQESKPVQMMYQIGLFRVASMASEKMKILELPFASGTMSMLVLLPDEVSGLEQLESIINFEKLTEWTSSNVMEERKIKVYLPRMKMEEKYNLTSVLMAMGITDVFSSSANLSGISSAESLKISQAVHAAHAEINEAGREVVGSAEAGVDAASVSEEFRADHPFLFCIKHIATNAVLFFGRCVSP
modifications: particles
notes: Ovalbumin particles with an average diameter of 10 μm attached to a plate containing a PDMS 40 adhesive layer
- Initial ovalbumin particles remaining on the surface of PDMS 40 (27,000 g for 10 min, pressure 0.2 N/cm^2, average diameter 10 μm): 96%
- Vertical adhesion force between ovalbumin particles and PDMS 40 (from centrifugation at 27,000 g): more than 0.2 N/cm^2
